Measured values as given in US20190085029.

Tested on: T1, CDK5 inhibitory (CDK5i) peptide
T1 sequence: ARAFGIPVRCYS

Substance: Purified recombinant p25/CDK5 complex
- CDK5 kinase activity (radiolabeled ATP and its substrate, H1): the CDK5i peptide significantly reduced CDK5 kinase activity compared to that from a scrambled peptide-treated group
